{"source": "paper PMC5960609", "about": "(Biochemical pharmacology, 2018)", "molecules": {"B1": {"name": "TH553, thioredoxin fusion of human AHR aa1-295 (CΔ553) (domain or fragment, UniProt P35869 1-295, looked up)", "chain": "MNSSSANITYASRKRRKPVQKTVKPIPAEGIKSNPSKRHRDRLNTELDRLASLLPFPQDVINKLDKLSVLRLSVSYLRAKSFFDVALKSSPTERNGGQDNCRAANFREGLNLQEGEFLLQALNGFVLVVTTDALVFYASSTIQDYLGFQQSDVIHQSVYELIHTEDRAEFQRQLHWALNPSQCTESGQGIEEATGLPQTVVCYNPDQIPPENSPLMERCFICRLRCLLDNSSGFLAMNFQGKLKYLHGQKKKGKDGSILPPQLALFAIATPLQPPSILEIRTKNFIFRTKHKLDF"}}, "key": {"[1]": {"biological_target": "GST-p23 W106A (human) (UniProt Q15185)", "experiment": "pull-down"}, "[2]": {"biological_target": "GST-p23 D108A (human) (UniProt Q15185)", "experiment": "pull-down"}, "[3]": {"biological_target": "GST-p23 D112A (human) (UniProt Q15185)", "experiment": "pull-down"}, "[4]": {"biological_target": "B1", "experiment": "pull-down"}, "[5]": {"biological_target": "Full-length human ARNT expressed in Pichia (human, UniProt P27540 1-789)", "sequence (P27540 whole entry)": "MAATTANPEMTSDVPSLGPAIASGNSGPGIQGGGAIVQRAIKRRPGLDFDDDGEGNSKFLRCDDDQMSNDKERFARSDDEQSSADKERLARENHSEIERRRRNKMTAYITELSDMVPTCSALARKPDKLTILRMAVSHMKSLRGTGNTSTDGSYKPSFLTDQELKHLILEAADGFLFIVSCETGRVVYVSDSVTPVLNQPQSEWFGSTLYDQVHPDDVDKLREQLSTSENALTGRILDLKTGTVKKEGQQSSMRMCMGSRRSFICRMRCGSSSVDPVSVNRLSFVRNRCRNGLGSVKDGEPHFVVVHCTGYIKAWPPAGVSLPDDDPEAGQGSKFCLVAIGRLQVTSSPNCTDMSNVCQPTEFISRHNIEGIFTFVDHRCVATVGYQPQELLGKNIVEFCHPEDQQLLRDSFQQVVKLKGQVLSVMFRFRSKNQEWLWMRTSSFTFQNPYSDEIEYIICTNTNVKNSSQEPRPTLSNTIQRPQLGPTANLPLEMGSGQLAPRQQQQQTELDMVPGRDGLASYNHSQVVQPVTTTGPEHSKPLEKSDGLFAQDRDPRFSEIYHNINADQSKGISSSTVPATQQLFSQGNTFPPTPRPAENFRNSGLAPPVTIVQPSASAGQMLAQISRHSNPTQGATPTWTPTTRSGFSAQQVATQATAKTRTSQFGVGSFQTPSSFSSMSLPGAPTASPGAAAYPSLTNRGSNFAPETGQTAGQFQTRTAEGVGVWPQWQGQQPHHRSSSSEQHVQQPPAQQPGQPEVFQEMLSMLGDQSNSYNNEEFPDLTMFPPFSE", "experiment": "native gel or EMSA"}}, "data": [{"molecule": "Histidine fusion of full-length human Hsp90 (from UniProt P07900 1-732) (natural protein)", "values": [{"measurement": "Hsp90 co-precipitated, percent of wild-type p23", "setting": "[1]", "value": 19, "unit": "%"}, {"measurement": "Hsp90 co-precipitated, percent of wild-type p23", "setting": "[2]", "value": 12, "unit": "%"}, {"measurement": "Hsp90 co-precipitated, percent of wild-type p23", "setting": "[3]", "value": 41, "unit": "%"}]}, {"molecule": "GST-p23 CΔ50 (p23 aa1-110, lacking the terminal 50 amino acids) (domain or fragment, human, UniProt Q15185 1-110, looked up) MQPASAKWYDRRDYVFIEFCVEDSKDVNVNFEKSKLTFSCLGGSDNFKHLNEIDLFHCIDPNDSKHKRTDRSILCCLRKGESGQSWPRLTKERAKLNWLSVDFNNWKDWE", "values": [{"measurement": "binding result", "setting": "[4]", "value": "binds"}]}, {"molecule": "B1", "values": [{"measurement": "binding result", "setting": "[5]", "value": "binds"}]}, {"molecule": "GST-p23 D108A (natural protein, human, UniProt Q15185 1-160, looked up) MQPASAKWYDRRDYVFIEFCVEDSKDVNVNFEKSKLTFSCLGGSDNFKHLNEIDLFHCIDPNDSKHKRTDRSILCCLRKGESGQSWPRLTKERAKLNWLSVDFNNWKAWEDDSDEDMSNFDRFSEMMNNMGGDEDVDLPEVDGADDDSQDSDDEKMPDLE", "values": [{"measurement": "binding result", "setting": "[4]", "value": "binds"}]}, {"molecule": "GST-p23 D112A (natural protein, human, UniProt Q15185 1-160, looked up) MQPASAKWYDRRDYVFIEFCVEDSKDVNVNFEKSKLTFSCLGGSDNFKHLNEIDLFHCIDPNDSKHKRTDRSILCCLRKGESGQSWPRLTKERAKLNWLSVDFNNWKDWEDASDEDMSNFDRFSEMMNNMGGDEDVDLPEVDGADDDSQDSDDEKMPDLE", "values": [{"measurement": "binding result", "setting": "[4]", "value": "binds"}]}]}
